From PMC8519931 come the findings set out here.

For the test, the target named is GFP-LC3B (UniProt Q9GZQ8). As to the kind of experiment: co-IP; GFP-LC3 captured on GFP-Trap magnetic beads from HEK-293 T lysates (NP-40 IP lysis buffer: 50 mM Tris-HCl pH 7.5, 150 mM NaCl, 1 mM EDTA, 1% IGEPAL), 1 h at 4 °C; HA-BNIP3 forms detected by blot; cells with or without 100 nM bafilomycin A1 and with or without exogenous FLAG-ULK1.

Sequence of HA-BNIP3 (WT) (natural protein) (Q12983 whole entry): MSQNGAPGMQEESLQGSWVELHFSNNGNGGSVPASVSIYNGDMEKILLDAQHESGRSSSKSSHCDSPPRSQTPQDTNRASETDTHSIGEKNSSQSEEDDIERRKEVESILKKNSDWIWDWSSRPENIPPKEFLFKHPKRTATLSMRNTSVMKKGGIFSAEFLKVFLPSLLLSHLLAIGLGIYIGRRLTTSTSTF

Substance HA-BNIP3 (WT) (natural protein) displayed a fold increase in binding with 100 nM bafilomycin A1 against untreated cells of 2.5 fold.

As to HA-BNIP3 S17E (natural protein), the fold increase in binding with 100 nM bafilomycin A1 against untreated cells was found to be 9 fold.
